Data from the nanobody polyreactivity screen of Harvey et al. (2022).

Experiment: yeast display, Sf9 membrane polyspecificity reagent, FACS + sequencing; frameworks hold sequencing errors
Summary of the method: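 In a synthetic yeast display library (Saccharomyces cerevisiae BJ5465), nanobody expression was induced with galactose for 36–48 hours. FACS gates were set low and high (top ~1%) using anti-HA fluorescence for expression and streptavidin fluorescence for binding of the Sf9 membrane reagent. Each polyreactivity label is drawn from the gate of origin.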

Row | Sequence | polyreactivity (PSR sort gate)
1 | QVQLVESGGGLVQAGGSLRLSCAASGRIFWFYAMGWYRQATGKERELVAAINTSVGRTHYADSVKGRFTISRDNAKNTVYLQMNSLKPEDTAVYYCASDVKRYGWEYGYWGQGTQVTVSS | low polyreactivity
2 | QVQLVESGGGLVQAGGSLRLSCAASGIIFQHNAMGWYRQAPGKERELVAAISSNGGRTFYPDSVKGRFTISRDNAKNTVYLQMNSLKPEDTAVYYCNRQYPSRYGYWGQGTQVTVSS | high polyreactivity
3 | QVQLVESGGGLVQAGGSLRLSCAASGSIFPDYAMGRYRQAPGKERELVAGISSNSGSTYYADSVKGRFTISRDNAKNTVYLQMNSLKPEDTAVYYCAKDSFWRDTGYTDGDYWGQGTKVTVSS | low polyreactivity
4 | QVQLVESGGGLVQAGGSLRLSCAASGSILGYYGMGWYRHAPGKERELVAAISSSCNTNYADSVKGRFTISRDNAKNTVYLQMMSLKPEDTAVYYCAASFQYVAYYLYDYWGQGTQVTVSS | low polyreactivity
5 | QVQLVESGGGLVQAGGSLRLSCAAYGGIFKQYALGCYRQAPGKERELVAANTWSGGSTYYADSVKGRFTISRDNAKNTVYLQMNSLKPEDTAVYYCAKDYVLFQYVDFQDDDYWGQGTQVTVSS | low polyreactivity
6 | QVQLVESGGGLVQAGGSLRLSCAASGRTFHGYAMGWYRQAPGKERELVAAITSSGARTYYADSVKGRFTISRDNAKNTVFLQMNILKPEDSAVYYCAVNWLRGMDWGQGTQVTVSS | high polyreactivity
7 | QVQLVESGGGLVQAGGSLRLSCAASGSIFQRNAMGWYRQAPGKERELVAAITYSGGGTYYADSVKGRFTISRDNAKNTVYLQMNSLKPEDTAVYYCAADYKSKYSGYIYDYWGQGTQVTVSS | low polyreactivity
8 | QVQIVESGGGLVQAGGSLRLSFAASGRTFGVYAMGWYRQAPGKERELVAAISATGGSTYYADSVKGRFTISRDNSKNTVYLQMNSLKPEDTAVYYCARGGTTLYWGLGTQVTVSS | high polyreactivity
9 | QVQLVESGGGLVQAGGSLRLSCAASGSIFDRYALGWYRQAPGKERELVAAISTGGSTNYADSVKGRFTISRDNAKNTVYLQMNSLKPEDTAVYYCAAASPYHEYDYWGQGTQVTVSS | low polyreactivity
10 | QVQLVESGGGLVQAGGSLRLRCAASGTNSVQYAMGGYRQAPGKERELVAAIDRSGGSTSYADSVKGRFTISRDNAKNTVYLQMNSLKQEDTAVYYCNADPFRSTYSYDYWGQGTQVTVSS | low polyreactivity
11 | QVQLVESGGGLVQAGGSLRLSCAASGFTMARYAMGSYRQAPGKERELVAAISWSGGSTYYADSVKGRFTISRDNAKNTVYLQMNSLKPEDTAVYYCNAVYATRIGFDYWGQGTQVTVSS | high polyreactivity
12 | QVQLVESGGGLVQAGGSLRLSCAASGITFTGYGMGWYRQAPGKERELVAAIRLRTGSTYYADSVKGRFTISRDNAKNTVYLQMYSLKPEDTAVYYCAAAFPRYRSRAIRVDYWGQGTQVTVSS | high polyreactivity
13 | QVQLVESGGGLVQAGGSLRLSCAASGGTFVYYTMGWYRQAPGKERELVAAITQSGSTTYYADSVKGRFTISRDNAKNTVYLQMNSLKPEDTAVYYCARRYGTWNAYDYWGQGTQVTVSS | low polyreactivity
14 | QVQLVESGGGLVQAGGSLRLSCAASGFIFDTNAMGLYRQAPGKERELVATISTSGGSTSYADSVKGRFTISRDNAKNTVYLQMNSLTPEDTAVYYCAARWYFPDRVKYDYWGQGTQVTVSS | low polyreactivity
15 | QVQLVESAGGLVQAGGSLRLSCSAYGIIFSRYAMGWYRQAHGKERELVAAITSGGSTSYADSVKGRFTISRDNAKNTVYLQMNSLKPADTAVYYCAAQFFYRKSGTWAVYRYNYWGQGTQVTVSS | high polyreactivity
16 | QVQLVESGGGLVQAGGSLRLSCDASGRTFGHKAMAWYRQAPGKEREFVAAITYSCVRTFYADSVKGRFTISRDNAKNTVYLQMNSLKQEDTAVYYCATDWRRDYDFWGQGTQVTVSS | low polyreactivity

Row | Sequence | polyreactivity (PSR sort gate)
17 | QVQLVESGGGLVQAGGSLRLSCAASGRTFRINAMGWYRQAPGKERELVAAITSGGRTNYADSVKGRFTISRDNAKNTVYLQMNSLKPEDTAVYYCAADTTHWYYLGYGYWGQGTQVTVSS | low polyreactivity
18 | QVQLVESGGGLVQAGGSLRLRCAASGFTFRYYALAWYRPAPGKERELVAAISGSGGSTYYADSVKGRFTISRDNAKNTVYLQMNSLKPEDTAVYYCNALSARSRLQSDYWGQGTQVTVSS | high polyreactivity
19 | QVQHVESGGGLVQAGGSLRLSCAASGRTFALNAMGWYRQAPGKERELVAAISWSSGRTYYADSVKGRFTISRDNAKNTVYLQMNSLKPEDTAVYYCAALVAHKGDYWGQGTQVTVSS | high polyreactivity
20 | QVQLVESGGGLVQAGGSLRLSCAASGIIFASYALGWYRQAPGKERELVAAISGGGSTYYADSVKGRFTISRDNAKNTVYLQMNSLKPEDTAVYYCNADVTLRLWAYYYYRYNYWGQGTQVTVSS | low polyreactivity
21 | QVQLVESGGGLVQAGGSLRLSCAASGFIYGRNAMGWYRQAPGKERELVAAINWRGGSTYYADSVKGRFTISRDNAKNTVYLQMNSLKAEDTAVYYCAARAPYRYGYDYWGQGTQVTLSS | high polyreactivity
22 | QVQLVESGGGLVQAGGSLRLSCAASGSIFVNYAIGWYRQAPGKERELVAAISRSGGRTYYADSVKGRFTISRDNAMNSVYLQMNSLKPEDTAVYYCNVYPVLRTIEGDYWGQGTQVTVSS | high polyreactivity
23 | QVQLVESGGGLVQAGGSLRLSCAASGRTFAQYAMGWYRQAPGKERELVAAISRSGGSTFYADSVKGRFTISRDNAKNTVYLQMNSLKPEDTAVYYCAAYNRQASLDYWGQGTQVTVSS | high polyreactivity
24 | QVQLVESGAGLLQAGGSLRISCAASGLTFKIIAMGWYRQAPGKERELVAAISSGTSTNYADSVKGRFTISRDNAKITVYLQMNSLKPEDTAVYYCAARGFWGVAYRYYYWGQGTQVTLSS | high polyreactivity
25 | QVQLVESGGGLLQAGGSLRLSSAASGFIFNWYAMGGYRQAPGKERELVAAITSGGSTNYADSVKGRFTISRDNAKNTVYLQMNSLKPEDTAVYYCAARHWRRYGYCGQGTQVTVSS | high polyreactivity
26 | QVQLVESGGGLVQAGGSLRLSCAASGRTFYWNAMGWSRQAPGKERELVASINCGGSTYYADSVKGRFTISRDNAKNTVYLQMNSLKPEGTAVYYCNAESYEFHRAWGDYDYWGQGTQVTVSS | low polyreactivity
27 | QVQLVESGGGLVQAGGSLRLSCAASGFTFQWYGMGWYRQAPGKERELVAAITWSGGRTNYADSVKGRFTISRDNAKNTVYLQMNSLKPEDTAVYYCNKVFPRRGGDDNYWGQGTQVTVSS | high polyreactivity
28 | QVQLVESGGGLVQAGGRLRLSCAASGSTFEINVMGWYRQAPGKERELFAAITYSGGSTYYADSVKGRFTISRDNEKNTVYLQMNSLKPEDTAVYYWNADYILDAQYDYWGQGTQVTVSS | low polyreactivity
29 | QDQLVESGGGLVQAGGSLRLSCAASGLILHKYAMGWYRQAPGKERELVASINSGANTNYADSVKGRFTISRDNAKNTLYLHLNSLKPEDTAVYYCAADWQQLSYVWRSQRRYNYWGQGTQVTVSS | low polyreactivity
30 | QVQLVESGGGLVQAGGSLRLSCAASGFIFANYAMGWDRQAPGKERELVAAISTSGSSTYYADSVKGRFTISRDNAKNTVYLQMNSLKPKDTAVYYCRTSGKHRLYISSYRFEYWGQGTQVTVSS | high polyreactivity
31 | QVQLVESGGGLVQAGGSLRLSCAASGRIFGSYAMGWYRQAPGKERELVASIRSGGRTKYADSVKGRFTISRDNAKNTVYLQMNSLKPEVTAVYYCAVPIEWDYGYWGQGTQVTVSS | low polyreactivity
32 | QVQLVESGGGLVQAGGSLRLSCAASGSTFVFYAMGWYRQAPGKERELVAINSGGSTYYADSVKGRFTISRDNAKKTVYLQMNSLKPVDTAVYYCAKDRLRVWRFDYWGQGTQVTVSS | low polyreactivity
